Results taken from patent US20200392227A1 (LYVGEN BIOPHARMA, published 2020).

Molecular target: T1, human FcRn protein (MednaBio, E1032) (human, UniProt P55899 24-297; P61769 21-119)
T1 construct: Bought; assays at pH 6
Assay: BLI
How it was run: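 On an Octet Red96 System, anti-penta-HIS biosensors loaded with commercial human Fc receptor proteins were dipped into test IgG diluted 1:3 over 8 points from 300 nM. Fcγ receptor runs used pH 7.2 and FcRn runs used pH 6. Global fitting of these biolayer interferometry data gave the values for Kd, kon and koff, using a 1:1 binding model.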

T1 sequence (P55899 24-297 limits assumed, form in doubt, chain 1 of 2): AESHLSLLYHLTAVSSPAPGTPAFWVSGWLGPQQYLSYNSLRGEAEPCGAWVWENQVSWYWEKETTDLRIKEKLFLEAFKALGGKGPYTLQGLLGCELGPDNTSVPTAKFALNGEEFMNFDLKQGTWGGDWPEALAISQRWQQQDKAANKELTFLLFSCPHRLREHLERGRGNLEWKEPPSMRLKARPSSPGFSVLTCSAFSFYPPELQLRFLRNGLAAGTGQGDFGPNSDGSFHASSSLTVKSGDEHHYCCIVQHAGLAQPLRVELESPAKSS
T1 sequence (P61769 21-119 limits assumed, form in doubt, chain 2 of 2): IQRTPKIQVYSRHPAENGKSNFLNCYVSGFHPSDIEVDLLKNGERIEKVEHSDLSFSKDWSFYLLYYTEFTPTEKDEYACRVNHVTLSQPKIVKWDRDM

B1: anti-CD137 IgG4 with Fc variant G4m19 (antibody)
heavy: EVQLVQSGAEVKKPGESLRISCKGSGYSFSTYWISWVRQMPGKGLEWMGKIYPGDSYTNYSPSFQGQVTISADKSISTAYLQWSSLKASDTAMYYCARGYGIFDYWGQGTLVTVSSASTKGPSVFPLAPCSRSTSESTAALGCLVKDYFPEPVTVSWNSGALTSGVHTFPAVLQSSGLYSLSSVVTVPSSSLGTKTYTCNVDHKPSNTKVDKRVESKYGPPCPPCPAPEFLSVFLFPPKPKDTLMISRTPEVTCVVVDVEQEDPEVQFNWYVDGVEVHNAKTKPREEQFNSTYRVVSVLTVLHQDWLNGKEYKCKVSNKGFPSSIEKTISKAKGQPREPQVYTLPPSQEEMTKNQVSLTCLVKGFYPSDIAVEWESNGQPENNYKTTPPVLDSDGSFFLYSRLTVDKSRWQEGNVFSCSVMHEALHNHYTQKSLSLSLGK
light: SYELTQPPSVSVSPGQTASITCSGDNIGDQYAHWYQQKPGQSPVLVIYQDKNRPSGIPERFSGSNSGNTATLTISGTQAMDEADYYCATYTGFGSLAVFGGGTKLTVLGQPKAAPSVTLFPPSSEELQANKATLVCLISDFYPGAVTVAWKADSSPVKAGVETTTPSKQSNNKYAASSYLSLTPEQWKSHRSYSCQVTHEGSTVEKTVAPTECS
notes: copies: 2 + 2
- Kd: 13 nM
- koff: 0.009 s⁻¹
- kon: 690000 M⁻¹ s⁻¹
